From paper PMC10858482, “Computational design and engineering of self-assembling multivalent microproteins with therapeutic potential against SARS-CoV-2” (Journal of Nanobiotechnology, 2024)

Molecular target: T1, RBD of the S protein of SARS-CoV-2 (Omicron BA.1) (SARS-CoV-2 Omicron BA.1, strain)
T1 construct: also called RBD (Omicron BA.1)
Test: BLI; Octet RED96e; RBD (Omicron BA.1) immobilised on streptavidin (SA) biosensors; analyte 500-31.25 nM Nb67 or 100-3.125 nM Tr67 in 1x PBS, 0.02% Tween-20, 0.1% BSA; association 1 min, dissociation 3 min; 1:1 binding model
Conditions: both partners purified

B1: nanobody Nb67 (VHH)
VHH: EVQLVESGGGLVQTGGSLRLSCALSGYTFSIFPTAWFRQAPGKEREFVAGIRWNGSTRDYTEYADFVKGRFTISRDNAKNMVYLQMISLKPEDTALYYCAASDGVIDGTNANAYRYWGQGTQVTVSS
notes: also called monovalent Nb67
Kd: 15.2 nM
